From paper doi:10.1101/2023.05.03.539133 (bioRxiv, 2023)

Legend:
SEC = biological target: the molecule itself; assay: SEC
AUC = biological target: the molecule itself; assay: AUC

B1: inner membrane cytochrome c ImcH from Geobacter sulfurreducens (recombinant, C-terminal 6x His-tag) (natural protein, UniProt Q747K6 1-507, looked up)
chain: MTLRKTAGYLWNPISLIGFLLAVVATGLIIAFIAMEMITGIDHPYIGLLVYFAFPGMLILGLILVPIGAWRVRNQRRTEVPEEVPPYPRVDFNDPHKRRLFIFFVLASVIFVLIVSVASILGFEFTESTTFCGELCHVVMEPEHKAWQGSPHARVKCVECHVGPGAEWYVKAKLSGLRQVWAVLTHSYHFPIATPIENLRPARDTCEQCHWPEKFYSGRQRVFYHYAPNKENTPREINMLIKIGGTPKSPHAMGIHWHIGTEVTYIARDRKRLDIPYVAVKQKDGSIVEYMDTEKPLTREEIAKAEKRRMDCIDCHNRPTHIYRSPAREMDEHIVSGQIDAGLPYIKKVAVEILEQPYKSKEEAHAAIEAKLPEYYAKNFPEVAKVKAAAINQAVAHVKDIYSRNFFPRMKVTWSTYPNHIGHFYTPGCFRCHDGKHKTSTGKIISKDCNMCHEMIGQKGENIPEGKVVKEFVHPADIGDALYNVNCSDCHMAAAEDSAGGEGPGKH
modifications: seven c-type hemes (CXXCH heme binding motifs)
stoichiometry N (SEC): 2 | stoichiometry N (AUC): 4
